Laboratory results taken from paper PMC11642994, “AGC family kinase of Entamoeba histolytica: Decoding the members biochemically” (PLOS Pathogens, 2024).
No end group written: not given here.

B1: EhAGCK1 WT (Entamoeba histolytica HM-1:IMSS) (protein)
chain: MEEKTQGWLMKEGGSWKSWKKRYFVLDNDTLYYYKEQDKKTLMGTMNLSLATHITAVDNYHKKYENIIRICTPSRTFHLSAANEEERLAWLTSIICHSEKTNICKPRISSVPVTQKDFDVKCLLGKGAYGKVFLVEMISTHEIFAMKTIEKKQIIEYEEIEHTMSERRILSKLHHPFLVNLYYSFQTPTHLFYIIDYCPGGEFYYYLQKNGKVSEEDAKFYAAQILLAIEHLHSSNIVYRDIKPENILIGADGYLRLTDFGLSKENVTKENTTSTFCGTPEYLAPEVVVGKDYSEPVDWWGFGILIYEMIHGHAPFTSEDIQQLFQKIIHDPVSFPSASYPSADCKECIVMLLEKDPEKRLTDPNRIKSHCWFKGFDWEGLFQKKLSPPFVPVLKDKTDTSNFNEDIINETAKIDEGEVVDSKDYFNDFTYCK
notes: full-length, His-tagged (pCold), expressed in E. coli C41(DE3)
B2: EhAGCK2 WT (Entamoeba histolytica HM-1:IMSS) (protein)
chain: MSVKTGWGIKEGGSWKTWKRRMFKLSEGKIEYFKDEGMTKKMGDIELSKVTHVLAVDQYKKRKNLIRIITPSRTYHISVNEESDRDSWVEAIRGMIGDNKEKKTQEEKEENKISMEDFDIITLLGKGAFGKVMLVKYKKEGKIYAMKTVEKAQIIDSNEVEHILSEKVVLSQINNPFLVNMHYSFQTPTHLVFILDYCAGGELFSYLQKHPAGLPEVDVKFYAAQIVLALEHMHSTGIIYRDIKPENILFEKDGYLRMTDFGLAKSTKKGTTNTFCGTPEYLAPEVVEGLDYNEYIDWWGLGILIYEMLFTQSPFLAETMEELYENILQREPKYPSTKPITEECMNFINSLLIKEPSKRLTDPDQIKTHPWFNGFNFDDLYKKKLTPPYVPKIQSQTDTSNFDDEITQEEVDLKTGVEVVADNRFFTDFTYVQK
notes: as for B1

Key:
EhAGCK1 WT = EhAGCK1 WT (Entamoeba histolytica, UniProt C4M2W0); experiment: Microscale Thermophoresis (MST), EhAGCK1 WT; type: binding
Procedure: Microscale Thermophoresis (MST) was performed in the presence of full-length and kinase-dead EhAGCK1 and EhAGCK2 proteins, along with HsGSK3, EhRhoGEF, and EhCoactosin peptide substrates. Proteins were labelled using a His-tag labelling kit, RED-tris-NTA 2nd Generation (Nano Temper Technologies, San Francisco, CA, USA). A brief labelling reaction was performed in a buffer containing (50 mM Tris-Cl pH 8, 150 mM NaCl, 1 mM β-ME and 5% glycerol) with a protein concentration of 20 nM and a molar dye: protein ratio of approximately 3:1. The mixture was kept at room temperature for 30 min, followed by centrifugation at 15000 g for 10 min at 4°C. A series of 16 1:1 dilutions were prepared using the same buffer, resulting in peptide concentrations ranging from 500 μM to […]. Following a 10 min incubation, the samples were loaded into standard monolith NT.115 capillaries from Nano Temper Technologies. […] Data from three independently pipetted measurements were analysed using MO. […]
The kinase assay data presented here are the mean ± standard error (SE) of n≥3 of three independent experiments. The Km and Vmax were determined from a direct, nonlinear fit of [V] versus [S] plots using the Michaelis-Menten equation: V=Vmax[S]/Km+[S] using the GraphPad Prism 9.0 software package (GraphPad Software Inc., CA, USA). […]

[1] = substrate: Nc1ncnc2c1ncn2[C@@H]1O[C@H](COP(=O)(O)OP(=O)(O)OP(=O)(O)O)[C@@H](O)[C@H]1O; experiment: ADP-Glo luminescent kinase assay with 0-1000 uM ATP, 50 uM EhRhoGEF peptide as co-substrate and 20 uM kinase, pH 7.5, 30 °C, Michaelis-Menten fit.; type: biochemical
Procedure: (§1) Fig 6 Graphs representing the Michaelis-Menten kinetics of EhAGCK1 and EhAGCK2. Panel A-D represents the Km and Vmax for peptide substrates, assays were performed in the presence of 20 μM EhAGCK1 (WT and KDD1) and EhAGCK2 (WT and KDD2) proteins were assayed in the presence of 250 μM ATP and serial dilutions (0 μM to 200 μM) of EhRhoGEF, EhCoactosin, and HsGSK3 peptide substrates. […] Panel E-H represents the Km and Vmax for ATP, assays were assessed in the presence of 50 μM peptide substrates (EhRhoGEF, EhCoactosin, and HsGSK3), serial dilution(0 μM to 1000 μM) of ATP, and 20 μM of the proteins EhAGCK1 (WT, and KDD1) and EhAGCK2 (WT, and KDD2). […] Relative luminescence unit (RLU) values are converted to μM/min using the method described in the Materials and Methods section. […]
(§2) Further, we determined the Km and Vmax values for ATP as it serves a vital metabolic molecule and substrate crucial for kinase activity, determining ATP Km and Vmax a key biochemical parameters for all kinases. […] Additionally, we compared previously determined Km and Vmax values of human Akt proteins in the presence of GSK3 peptide with our kinase protein results, which are presented in Table 1.
(§3) The phosphorylation activity of kinases was measured using the ADP-Glo kinase assay kit according to the manufacturer’s protocol with few modifications (Promega, Madison, WI, Catalogue number V6930). […]

[2] = substrate: Nc1ncnc2c1ncn2[C@@H]1O[C@H](COP(=O)(O)OP(=O)(O)OP(=O)(O)O)[C@@H](O)[C@H]1O; experiment: ADP-Glo luminescent kinase assay with 0-1000 uM ATP, 50 uM HsGSK3 peptide (GRPRTTSFAESCK) as co-substrate and 20 uM kinase, pH 7.5, 30 °C, Michaelis-Menten fit.; type: biochemical
Procedure: as §1, §2, §3

[3] = substrate: Nc1ncnc2c1ncn2[C@@H]1O[C@H](COP(=O)(O)OP(=O)(O)OP(=O)(O)O)[C@@H](O)[C@H]1O; experiment: ADP-Glo luminescent kinase assay with 0-1000 uM ATP, 50 uM EhCoactosin peptide as co-substrate and 20 uM kinase, pH 7.5, 30 °C, Michaelis-Menten fit.; type: biochemical
Procedure: as §1, §2, §3

Row | Molecule | Kd (EhAGCK1 WT) | Km [1] | Km [2] | Km [3]
1 | GRPRTTSFAESCK [HsGSK3, reference compound] | 2.61 µM | – | – | –
2 | B1 | – | 125.4 µM | 241.7 ±22.2 μM uM | –
3 | B2 | – | – | 291± 74.4 μM uM | 92.06 µM
